According to patent US20260234276A1 (DOMAIN THERAPEUTICS, published 2026):
Several values for one entry are separate records, joined by “and”; a condition that tells them apart may be missing. Equal entries are not always repeated.

Key:
[1] = biological target: T1, human CCR8 (human, UniProt P51685 1-355); test: cell-based or functional assay
[2] = biological target: T1, human CCR8; test: cell-based or functional assay; remark: listed apart in the source
[3] = biological target: T2, pm8 (human, sulfated tyrosines at Y15, Y16 and Y17); test: ELISA on coated peptide [cont.]
Outline: (§1)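 Binding is scored by optical density: plates carry 500 ng/mL peptide in carbonate/bicarbonate buffer, receive mAb at 1 μg/mL or diluted 1/10 for 90 min at room temperature, then TMB for 15 min.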

[4] = biological target: T3, pm6 (human, sulfated tyrosines at Y16 and Y17); test: ELISA on coated peptide [cont.]
Outline: as §1

[5] = biological target: T4, pm3 (human, sulfated tyrosine at Y17); test: ELISA on coated peptide [cont.]
Outline: as §1

[6] = biological target: T5, pm5 (human, sulfated tyrosines at Y15 and Y17); test: ELISA on coated peptide [cont.]
Outline: as §1

[7] = biological target: T1, human CCR8; test: competition HTRF on HEK-293 cells with hCCR8; blocked ligand CCL1-AF647 [cont.]
[8] = biological target: T1, human CCR8; test: cell-based or functional assay; remark: listed apart in the source
[9] = biological target: T1, human CCR8; test: flow cytometry, HUT78 cells (native CCR8)
Protocol: The same staining protocol was applied on human CCR8 transfected CHO cell line versus wild type CHO cell line, cutaneous T cell lymphoma HUT78 cell line and human activated T cell model.
Briefly, 1·10⁵ cells per well in a 96 well plate were incubated with a dilution of unconjugated anti-CCR8 mAb at 10 μg/mL then diluted at 1/3.33, 4 dilution points (during 30 min at 4° C.). […] To determine EC50 value, 8 concentrations of anti-CCR8 mAb were tested. Unbound antibodies were washed away with PBS (Invitrogen by Thermofisher Scientific, Illkirch-Graffenstaden, France) supplemented by 2% Fetal Bovine Serum (Invitrogen by Thermofisher Scientific, Illkirch-Graffenstaden, France) and 2 mM EDTA (Invitrogen by Thermofisher Scientific, Illkirch-Graffenstaden, France). Subsequently, cells are centrifuged (5 min at 400 g) and bound antibody is detected with F(ab′)₂-Goat anti-Mouse IgG (H+L) Cross-Adsorbed Secondary Antibody, Alexa Fluor 488 (dilution 1/500) (Invitrogen by Thermofisher Scientific, Illkirch-Graffenstaden, France) or with F(ab′)₂-Goat anti-Human IgG Fc Secondary Antibody, PE (Invitrogen by Thermofisher Scientific, Illkirch-Graffenstaden, France) (dilution 1/1000) at 4° C. for 30 min. Detection reagent is washed away and cells are centrifuged (5 min at 400 g) and resuspended in 30 μL PBS. Bound detection antibody is quantified on a MacsQuant16 (Miltenyi, Gladbach, Germany) (B1 or B2 channel, 5000 events per acquisition).

[10] = biological target: T1, human CCR8; test: cell-based or functional assay; remark: listed apart in the source
[11] = biological target: T1, human CCR8; test: flow cytometry, hCCR8 transfected CHOK1 cells
[12] = biological target: T2, pm8; test: ELISA on coated peptide
Protocol: (§2) The specific binding properties of antibodies were evaluated by ELISA with coated CCR8 related peptides (500 ng/mL) in carbonate/bicarbonate buffer. Different peptides were used as described in Table 1 (see Example 1). Each anti-CCR8 mAb was tested at 1 μg/mL then diluted at 1/10. After an incubation at room temperature during 90 min, unbound mAbs were removed by washings. […] After washings, 3,3′,5,5′-tetramethylbenzidine (TMB) (Interchim, Montlugon, France) was added for 15 min. Then the optical density (OD) was determined by using a multiplate reader (Tecan, Lyon, France) and correlated with mAb reactivity on the panel of coated peptides.

[13] = biological target: T3, pm6; test: ELISA on coated peptide
Protocol: as §2

[14] = biological target: T4, pm3; test: ELISA on coated peptide
Protocol: as §2

[15] = biological target: T5, pm5; test: ELISA on coated peptide
Protocol: as §2

T5 sequence (peptide, as listed by the source): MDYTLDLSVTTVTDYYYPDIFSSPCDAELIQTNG
T2 sequence (peptide, as listed by the source): as above
T4 sequence (peptide, as listed by the source): as above
T3 sequence (peptide, as listed by the source): as above

IC50 (Gi2 BRET, pH 6.5) [1]	IC50 (Gi2 BRET, pH 7.4) [1]	ADCP % Max of phagocytosis, monocyte-derived macrophages Donor 9 [8] [%]	ADCC % Max lysis, NK cells Donor 1 [10] [%]	ADCC % Max lysis, NK cells Donor 2 [10] [%]	ADCC EC50, NK cells Donor 1 [10] [nM]	ADCC EC50, NK cells Donor 2 [10] [nM]	% positive cells [11] [%]	MFI fold change to isotype ctrl [11] [fold]	binding result [12]	binding result [13]	binding result [14]	binding result [15]	other results	Binder
0.024 µg/ml and 0.157 nM	0.048 µg/ml and 0.318 nM	–	–	–	–	–	–	–	–	–	–	–	hCCL1 (100 nM) residual response, Protocol #2, mAb 0.08 µg/mL [2]: 88%; hCCL1 (100 nM) residual response, Protocol #2, mAb 0.4 µg/mL [2]: 82%; hCCL1 (100 nM) residual response, Protocol #2, mAb 10 µg/mL [2]: 64%; hCCL1 (100 nM) residual response, Protocol #3, mAb 0.05 µg/mL [2]: 88%; hCCL1 (100 nM) residual response, Protocol #3, mAb 0.5 µg/mL [2]: 71%; hCCL1 (100 nM) residual response, Protocol #3, mAb 5 µg/mL [2]: 70%; binding result [3]: binds; binding result [4]: binds; binding result [5]: binds; binding result [6]: binds; IC50 (read off the curve) [7]: ~0.02 µg/mL	3-76 (antibody, human IgG1, kappa, V domains shown, humanized, human IgG1 kappa) VH: EVQLVESGGGLVQPGRSLRLSCTASGFTFNTYAMNWVRQAPGKGLEWVARIRSKSNNYATYYAASVKGRFTISRDDSKSIAYLQMNSLKTEDTAVYYCVRGREAYYRYDGGYYAMDVWGQGTTVTVSS VL: DIVMTQAAPSLPVTPGESASISCRSSKSLLHSNGNTYLYWFLQKPGQSPQLLIYRMSNLASGVPDRFSGSGSGTAFTLKISRVEAEDVGVYYCMQHLEYPFTFGSGTKLEIKR
–	–	8.29	22	20	0.00224	0.00216	–	–	–	–	–	–	% of labelled cells [9]: 34%; EC50 [9]: 0.4 nM	3-83 (antibody) heavy: not shown light: DIVMTQAAPSLSVTPGESASISCTSSKSLLHSNGNTYLYWFLQKPGQSPQLLIYRMSNLASGVPDRFSGSGSGTAFTLKISRVEAEDVGVYYCMQHREYPFTFGSGTKLEIKRTVAAPSVFIFPPSDEQLKSGTASVVCLLNNFYPREAKVQWKVDNALQSGNSQESVTEQDSKDSTYSLSSTLTLSKADYEKHKVYACEVTHQGLSSPVTKSFNRGEC
> 4.5 µg/ml and > 30 nM	> 4.5 µg/ml and > 30 nM	–	–	–	–	–	38.8	2.61	binds	binds	binds	binds	–	3-1 (antibody, V domains shown) VH: EVQLVETGGGLVQPKGSLKVSCAASGFTFNTNAMNWVRQAPGKGLEWVARIRSKSNNYATYYADSVKDRFIISRDDSQSMLYLQMNNLKTEDTAMYYCVRGGYYGTSVYFDVWGAGTTVTVSS VL: DIVMTQAAPSVPVTPGESVSISCRSSKSLLHSNGNTYLYWFLQRPGQSPQLLIYRMSNLASGVPDRFSGSGSGTAFTLRISRVEAEDVGVYYCMQHLEYPFTFGGGTKLEIK
–	–	7.27	31	26	0.0733	0.0904	–	–	–	–	–	–	–	3-85 (antibody) heavy: not shown light: DIVMTQAAPSVSVTPGESVSISCTSSKSLLHSNGNTYLYWFLQRPGQSPQLLIYRMSNLASGVPDRFSGSGSGTAFTLRISRVEAEDVGVYYCMQHREYPFTFGSGTKLEIKRTVAAPSVFIFPPSDEQLKSGTASVVCLLNNFYPREAKVQWKVDNALQSGNSQESVTEQDSKDSTYSLSSTLTLSKADYEKHKVYACEVTHQGLSSPVTKSFNRGEC
–	–	–	–	–	–	–	51.2	3.41	binds	binds	binds	binds	–	3-2 (antibody, V domains shown) VH: EVQLVESGGGLVKPGGSLKLSCAASGFTFSSYAMSWVRQTPEKRLEWVATINSGGSYTFYPDSVKGRFTISRDNAKNTLYLQMSSLRSVDTAIYYCARVSGYDERFAYWGQGTLVTVSA VL: DVLMTQTPLSLPVSLGAQASISCRSSQSIVHSNGNTYLEWYLQKPGQSPKLLIYKVSNRFSGVPDRFSGSGSGTDFTLKLSRVEAEDLGVYYCFQGSHVPPTFGGGTKLEIK
